{"source": "paper PMC8497999", "about": "(iScience, 2021)", "binders": {"B1": {"name": "His6-ECSIT (mature human mitochondrial ECSIT with N-terminal His tag) (natural protein)", "chain": "SSEQSLVPSPPEPRQRPTKALVPFEDLFGQAPGGERDKASFLQTVQKFAEHSVRKRGHIDFIYLALRKMREYGVERDLAVYNQLLNIFPKEVFRPRNIIQRIFVHYPRQQECGIAVLEQMENHGVMPNKETEFLLIQIFGRKSYPMLKLVRLKLWFPRFMNVNPFPVPRDLPQDPVELAMFGLRHMEPDLSARVTIYQVPLPKDSTGAADPPQPHIVGIQSPDQQAALARHNPARPVFVEGPFSLWLRNKCVYYHILRADLLPPEEREVEETPEEWNLYYPMQLDLEYVRSGWDNYEFDINEVEEGPVFAMCMAGAHDQATMAKWIQGLQETNPTLAQIPVVFRLAGSTRELQTSSAGLEEPPLPEDHQEEDDNLQRQQQGQS"}}, "assay_in_all_cases": "SEC", "key": {"[1]": {"target": "T1, ACAD9 (non-tagged wild type) (human, UniProt Q9H845 38-621)", "T1 sequence": "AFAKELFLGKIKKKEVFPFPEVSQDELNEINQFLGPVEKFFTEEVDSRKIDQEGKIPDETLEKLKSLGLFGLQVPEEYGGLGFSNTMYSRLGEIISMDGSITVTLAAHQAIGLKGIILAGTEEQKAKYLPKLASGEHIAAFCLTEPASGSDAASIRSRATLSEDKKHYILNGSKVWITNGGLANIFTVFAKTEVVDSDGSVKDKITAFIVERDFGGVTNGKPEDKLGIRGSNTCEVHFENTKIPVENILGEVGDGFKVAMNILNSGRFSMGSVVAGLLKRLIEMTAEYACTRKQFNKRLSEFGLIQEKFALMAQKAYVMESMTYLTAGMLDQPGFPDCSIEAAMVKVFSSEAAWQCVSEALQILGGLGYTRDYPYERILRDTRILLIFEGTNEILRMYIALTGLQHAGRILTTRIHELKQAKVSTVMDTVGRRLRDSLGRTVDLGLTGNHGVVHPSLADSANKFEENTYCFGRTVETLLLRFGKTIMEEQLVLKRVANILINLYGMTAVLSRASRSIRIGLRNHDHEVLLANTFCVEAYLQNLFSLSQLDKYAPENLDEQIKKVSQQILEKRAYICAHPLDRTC"}, "[2]": {"target": "T1, ACAD9 (non-tagged wild type)", "remark": "listed apart in the source"}, "[3]": {"target": "T2, ACAD9-His6 R469W (human, UniProt Q9H845 38-621, R469W)", "T2 sequence": "T1 sequence with R432W"}}, "note": "Changes are numbered by the printed parent chain. Like-named read-outs stand apart in the source and are kept apart here.", "data": [{"binder": "B1", "values": [{"measurement": "stoichiometry N", "setting": "[1]", "result": "1 ECSIT monomer per ACAD9 monomer (2:2)"}, {"measurement": "stoichiometry N", "setting": "[2]", "result": "1 monomer:monomer"}, {"measurement": "binding result", "setting": "[3]", "result": "binds"}]}]}
